{"source": "paper PMC12623717", "key": {"[1]": {"target": "Rotavirus strain SA11 nonstructural protein 2 with the K294E change, untagged (NSP2 K294E) (rotavirus strain SA11)", "assay": "crystal structure; sitting drop vapor diffusion, 20 °C; protein ~8 mg/mL in 10 mM Tris-HCl pH 7.2, 50 mM NaCl, 1 mM DTT; reservoir 100 mM Tris-HCl pH 7.5, 0.2 M magnesium acetate, 12% PEG6K; space group I422, 1 molecule per asymmetric unit, octamer with D4 symmetry"}, "[2]": {"target": "Rotavirus strain SA11 nonstructural protein 2, wildtype, untagged (NSP2WT) (rotavirus strain SA11)", "assay": "crystal structure; sitting drop vapor diffusion, 20 °C; protein ~8 mg/mL in 10 mM Tris-HCl pH 7.2, 50 mM NaCl, 1 mM DTT; reservoir 100 mM Tris-HCl pH 7.5, 0.2 M magnesium acetate, 12% PEG6K; space group I422, 1 molecule per asymmetric unit, octamer with D4 symmetry"}}, "data": [{"substance": "Rotavirus strain SA11 nonstructural protein 2 with the K294E change, untagged (NSP2 K294E) (natural protein)", "values": [{"measurement": "stoichiometry N", "setting": "[1]", "value": 8}]}, {"substance": "Rotavirus strain SA11 nonstructural protein 2, wildtype, untagged (NSP2WT) (natural protein)", "values": [{"measurement": "stoichiometry N", "setting": "[2]", "value": 8}]}]}
